Laboratory results from patent US20100080803A1.
Where no end group is shown, it is not given here.

Biological target: a seven trans-membrane receptor
Assay: cell-based or functional assay

- half-saturation effect of the peptide on the decrease in cell area of A7R5 cells with 5 nM bradykinin: 9.35 µM
- increase of rat uterine contraction in the presence of oxytocin (isometric tissue bath, 100 µM peptide): 30%
Binder: AAHLPAEFTPAVHASLDKF-NH2 [2.022 kDa peptide, amino acids 110-128 of α-chain hemoglobin (SEQ ID No: 9)]
